Drawing on PMC11273545, this text covers stoichiometry N for 1 substance.

Assay [1] addresses multimeric recombinant RBD protein (SARS-CoV-2 S protein residues 331-589 linked to the trimerization region of bacteriophage T4 and six histidines) (SARS-CoV-2 (Wuhan strain) | bacteriophage T4) (UniProt P0DTC2). The experiment in a line: cross-linking.
Assay [2] has the same target. Briefly: SEC; Superdex 200 column (30 x 1 cm) in TBS, 0.4 mL/min; calibrated with BSA (66 and 132 kDa), carbonic anhydrase (30 kDa) and beta-amylase (200 kDa); 135 kDa fractions pooled and re-applied. For orientation: Size exclusion chromatography separates by hydrodynamic size, large species first.

As usually defined, the stoichiometry N is a count of units in the complex or per binding partner.

“And” between values parts separate entries of the source, which are not always exact repeats. Equal values may be shown once.

On to “multimeric recombinant RBD protein (SARS-CoV-2 S protein residues 331-589 linked to the trimerization region of bacteriophage T4 and six histidines) (from UniProt P0DTC2 331-589)”, for which the stoichiometry N in assay [1] is 3 and 6; in assay [2], 3.
